Reference: patent publication US20240209086A1 (PETMEDIX, published 2024)
Where a chain is given by its changes, count along the chain named.

T1: canine CD20 on cells (HEK293, MDCK II, CLBL-1 or native B cells) (canine, UniProt Q3C2E2 1-297)
T1 construct: also called dCD20; cCD20
T1 chain: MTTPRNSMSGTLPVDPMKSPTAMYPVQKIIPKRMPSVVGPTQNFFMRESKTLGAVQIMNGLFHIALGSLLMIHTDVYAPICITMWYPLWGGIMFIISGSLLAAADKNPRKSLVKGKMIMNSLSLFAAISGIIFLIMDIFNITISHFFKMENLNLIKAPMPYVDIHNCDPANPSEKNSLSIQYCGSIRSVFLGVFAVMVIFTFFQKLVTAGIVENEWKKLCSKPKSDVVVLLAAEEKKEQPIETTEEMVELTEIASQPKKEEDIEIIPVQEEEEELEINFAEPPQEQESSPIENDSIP

B1: PMX234 (monospecific anti-canine CD20, canine IgG-B, lambda C5) (antibody, V domains shown)
VH: ELQLVESGGDLVKPGGSLRLSCVASGFTFSRYYLNWVRQAPGKGLQWVAFITSGGSSTNYADAVKGRFTISRDNAKNTLYLQMNSLRAEDTAVYYCTSFDSWGQGTLVTVSS
VL: SYVLTQLPSKNVTLKQPAHITCGGDNIGSKSVHWYQQKLGQAPVLIIYYDSSRPTGIPERFSGANSGNTATLTISGALAEDEADYYCQVWDSSANVFGGGTHLTVLG
B2: PMX254 (monospecific anti-canine CD20, canine IgG-B, lambda C5) (antibody, V domains shown)
VH: EVQLVESGGDLVKPGGSLRLSCVASGFTFSRYHMSWIRQAPGKGLQWVAFIDSDGSGTRYADAVKGRFTFSRDNAKNTLYLQMSSLRAEDTAVYYCTSLEFWGQGTLVTVSS
VL: B1 VL
B3: PMX268 (monospecific anti-canine CD20, canine IgG-B, lambda C5) (antibody, V domains shown)
VH: EVQLVESGGDLMKPGGSLRLSCVASGITFSGYHMSWVRQAPGKGLQWVAFINSGRKNTAYADAVKGRFTISRDNAKNTLYLQMNSLRAEDTAIYYCTTLEFWGQGTLVTVSS
VL: B1 VL with S31N, S52R, A64V, S75N, V89M
B4: PMX270 (monospecific anti-canine CD20, canine IgG-B, lambda C5) (antibody, V domains shown)
VH: EVQLVESGGDLVKPGGSLRLSCVASGFTFSRYYMTWVRQAPGKGLQWVAYINSDRRSTTYADAVKGRFTISRDNAKNTLYLQMNSLRAEDTAVYYCTTLEYWGQGTLVTVSS
VL: B1 VL with S52R, S75N
B5: PMX235 (monospecific anti-canine CD20, canine IgG-B, lambda C5) (antibody, V domains shown)
VH: B4 VH with F27I, T35N, S53T, D54G, R55E, R56S, T59I, A61S
VL: B1 VL with V44A, S51N, S52R, A94D
B6: PMX241 (monospecific anti-canine CD20, canine IgG-B, lambda C5) (antibody, V domains shown)
VH: B3 VH with M12V, K56R, N57S, A59S
VL: B1 VL with S52R, S75N, V89M, A94V
B7: PMX232 (monospecific anti-canine CD20, canine IgG-B, lambda C5) (antibody, V domains shown)
VH: EMQLVESGGDLVKPGESLRLSCVASGISFNNYHMSWVRQAPGKGLQWVAYIDSVGTSTTYADAVKGRFTISRDNAKNTLYLQMNSLRAEDTAVYYCTTFDSWGQGTLVTVSS
VL: B1 VL with S52R
B8: PMX255 (monospecific anti-canine CD20, canine IgG-B, lambda C5) (antibody, V domains shown)
VH: B2 VH with T58A, S84N, F101Y
VL: B1 VL with I27V, S52R
B9: PMX271 (monospecific anti-canine CD20, canine IgG-B, lambda C5) (antibody, V domains shown)
VH: AVQLVESGGDLVKPGGSLRLSCVASGITFSRYHMSWVRQAPGKGLQWVAYINSGGSATSYTDAVKGRFSISRDNGKNTLYLQMNSLRVEDSAVYYCTTLDLWGQGTLVTVSS
VL: B1 VL with S52R, S75N, V89M
B10: PMX269 (monospecific anti-canine CD20, canine IgG-B, lambda C5) (antibody, V domains shown)
VH: EVRLVESGGDLVKPGGSLRLSCVASGLTFNRYYMSWVRQGPGKGLQWVAYIDSGGSPTTYADTVKGRFTISRDNAKNTLYLQMNSLRVEDTAVYYCTTLEYWGQGTLVTVSS
VL: B1 VL with S92T
B11: PMX245 (monospecific anti-canine CD20, canine IgG-B, lambda C5) (antibody, V domains shown)
VH: B4 VH with F27L, Y33H, T35S, D54G, R55G, R56S, T59D, A63G, T98S, Y101D
VL: B1 VL with A94V
B12: PMX260 (monospecific anti-canine CD20, canine IgG-B, lambda C5) (antibody, V domains shown)
VH: B2 VH with S30R, I37V, F50Y, D54G, R59S, F70I, S84N, T97S, E100D, F101Y
VL: B1 VL with S52R, A94G
B13: PMX248 (monospecific anti-canine CD20, canine IgG-B, lambda C5) (antibody, V domains shown)
VH: EVQLVESGGDLVKPGGSLRLSCVASGFTFSRYHMSWVRQAPGKGLQWVAYINSGGSTTSYADAVKGRFTISRDNAKNTLYLQMNSLRAEDTAIYFCTSLDYWGQGTLVTVSS
VL: B1 VL with V44I, S52R
B14: PMX249 (monospecific anti-canine CD20, canine IgG-B, lambda C5) (antibody, V domains shown)
VH: B13 VH with T57S, I93V, F95Y, T97A, L99F
VL: B1 VL with S1P, S52R
B15: PMX238 (monospecific anti-canine CD20, canine IgG-B, lambda C5) (antibody, V domains shown)
VH: B13 VH with Y50F, S53T, G55R, T57S, S59N, K65A, I93V, F95Y, T97S, S98T
VL: B1 VL
B16: PMX240 (monospecific anti-canine CD20, canine IgG-B, lambda C5) (antibody, V domains shown)
VH: B13 VH with F27L, Y50F, G55R, T57D, S59T, I93V, F95Y, S98T, L99F
VL: B1 VL with V44A
B17: PMX259 (monospecific anti-canine CD20, canine IgG-B, lambda C5) (antibody, V domains shown)
VH: B13 VH with T57S, I93V, F95Y, T97A, L99F
VL: B1 VL with S52N, A94G
B18: PMX256 (monospecific anti-canine CD20, canine IgG-B, lambda C5) (antibody, V domains shown)
VH: B13 VH with R31S, T57S, L81F, I93V, F95Y, S98T, L99F, Y101S
VL: B1 VL
B19: PMX242 (monospecific anti-canine CD20, canine IgG-B, lambda C5) (antibody, V domains shown)
VH: B13 VH with V2I, S53T, T57N, S59N, I93V, F95Y, S98T, Y101S
VL: B1 VL with S9F, S52R, A94V
B20: PMX261 (monospecific anti-canine CD20, canine IgG-B, lambda C5) (antibody, V domains shown)
VH: B1 VH with L2V, F27I, L34M, F50Y, T52D, S57P, N59T, N77K, T78A, S101Y
VL: B1 VL with Y86F
B21: PMX258 (monospecific anti-canine CD20, canine IgG-B, lambda C5) (antibody, V domains shown)
VH: B1 VH with L2V, F27L, L34M, F50Y, T52N, S53T, N59S, T97A, S101Y
VL: B1 VL
B22: PMX266 (monospecific anti-canine CD20, canine IgG-B, lambda C5) (antibody, V domains shown)
VH: B1 VH with Y33H, L34M, N35S, F50Y, T52N, N59S, S98T
VL: B1 VL with S92I
B23: PMX257 (monospecific anti-canine CD20, canine IgG-B, lambda C5) (antibody, V domains shown)
VH: B13 VH with R31S, T57S, K76Y, N77S, Y80F, S85N, I93V, F95Y, S98T, Y101S
VL: B1 VL
B24: PMX263 (monospecific anti-canine CD20, canine IgG-B, lambda C5) (antibody, V domains shown)
VH: B1 VH with L2V, L34M, F50Y, T52N, N59S, E89D, S101Y
VL: B1 VL
B25: PMX236 (antibody, V domains shown)
VH: B1 VH with L2V, F27L, L34M, F50Y, T52D, S57P, T97S, S101Y
VL: B1 VL with L4V, K10N, N11T, S52R
notes: also called PMX236 (monospecific anti-canine CD20, canine IgG-B, lambda C5)
B26: PMX239 (monospecific anti-canine CD20, canine IgG-B, lambda C5) (antibody, V domains shown)
VH: B1 VH with L2V, L34M, N59S, A61G, S101Y
VL: B1 VL with D50A
B27: PMX247 (monospecific anti-canine CD20, canine IgG-B, lambda C5) (antibody, V domains shown)
VH: B13 VH with T57P, T58S, I93V, F95Y, L99F, Y101C
VL: B1 VL with S52R
B28: PMX237 (monospecific anti-canine CD20, canine IgG-B, lambda C5) (antibody, V domains shown)
VH: B1 VH with L2V, F27L, L34M, F50Y, T52N, N59D, A88V, T97A, S101Y
VL: B1 VL with N11K, P17S, Y49H
B29: PMX243 (monospecific anti-canine CD20, canine IgG-B, lambda C5) (antibody, V domains shown)
VH: B13 VH with T57N, S59D, A61T, I93V, F95Y, T97S
VL: B1 VL with S51R, S52R, S92R, A94G
B30: PMX262 (monospecific anti-canine CD20, canine IgG-B, lambda C5) (antibody, V domains shown)
VH: B1 VH with L2V, F27I, L34M, F50Y, T52N, S57P, N59T, S101Y
VL: B1 VL with V44I, S51T
B31: PMX246 (monospecific anti-canine CD20, canine IgG-B, lambda C5) (antibody, V domains shown)
VH: B13 VH with V2M, T57P, S59N, I93V, F95Y, S98T, L99Y, Y101Q
VL: B1 VL with N11S, S92T
B32: PMX267 (monospecific anti-canine CD20, canine IgG-B, lambda C5) (antibody, V domains shown)
VH: B13 VH with V2M, N52D, G54D, S56I, T57N, S59N, I93L, F95Y, S98T, L99F
VL: B1 VL with A94G
B33: PMX253 (monospecific anti-canine CD20, canine IgG-B, lambda C5) (antibody, V domains shown)
VH: B1 VH with L2V, L4M, L34M, F50Y, T52N, S56G, N59S, T97S, S101Y
VL: B1 VL
B34: PMX252 (monospecific anti-canine CD20, canine IgG-B, lambda C5) (antibody, V domains shown)
VH: B13 VH with T57S, I93V, F95Y, T97A
VL: B1 VL with S92I
B35: PMX264 (monospecific anti-canine CD20, canine IgG-B, lambda C5) (antibody, V domains shown)
VH: B13 VH with Y50F, S53T, G55R, S56M, T57S, S59N, I93V, F95Y
VL: B1 VL

Target: T1, canine CD20 on cells (HEK293, MDCK II, …)
Assay: flow cytometry, canine CD20 HEK293 cells, 10 µg/ml, FITC anti-canine IgG
Experimental: A CD20 binding screen was performed on candidate proteins produced from the canine CD20 immunisation as described in Examples 2 and 3. CHO cells supernatants containing candidate antibodies were diluted to 10 μg/ml in FACS buffer (PBS containing 3% FBS) and screened for their ability to bind canine CD20 expressed on cell surface. In brief, 1-2×10⁵ canine CD20-expressing HEK cells were incubated with candidate mAbs for one hour at 4° C., at a fixed concentration of 10 μg/ml followed by incubation with 5 μg/ml of FITC-conjugated anti-canine IgG secondary antibody (Bethyl Laboratories) for 1 hour at 4° C. Cells incubated with anti-canine IgG FITC secondary antibody and without primary anti-canine CD20 antibody, or with isotype control primary antibody, were used as negative controls. The data were acquired on either a Beckman Coulter CytoFLEX or a BD Accuri C6 Plus flow cytometer and analysed using FlowJo software.

Row | binding result | Binder
1 | binds | B1
2 | binds | B2
3 | binds | B3
4 | binds | B4
5 | binds | B5
6 | binds | B6
7 | binds | B7
8 | binds | B8
9 | binds | B9
10 | binds | B10
11 | binds | B11
12 | binds | B12
13 | binds | B13
14 | binds | B14
15 | binds | B15
16 | binds | B16
17 | binds | B17
18 | binds | B18

Row | binding result | Binder
19 | binds | B19
20 | binds | B20
21 | binds | B21
22 | binds | B22
23 | binds | B23
24 | binds | B24
25 | binds | B25
26 | binds | B26
27 | binds | B27
28 | binds | B28
29 | binds | B29
30 | binds | B30
31 | binds | B31
32 | binds | B32
33 | binds | B33
34 | binds | B34
35 | binds | B35
